T1: Boi1 SH3 (BOI1_YEAST), P38041
T1 chain: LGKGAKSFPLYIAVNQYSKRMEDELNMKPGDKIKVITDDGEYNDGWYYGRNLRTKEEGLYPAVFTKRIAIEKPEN

T2: Boi2 SH3 (BOI2_YEAST), P39969
T2 chain: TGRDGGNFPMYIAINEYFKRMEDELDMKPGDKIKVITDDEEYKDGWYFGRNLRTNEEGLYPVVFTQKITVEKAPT

T3: Myo5 SH3 (MYO5_YEAST), Q04439
T3 chain: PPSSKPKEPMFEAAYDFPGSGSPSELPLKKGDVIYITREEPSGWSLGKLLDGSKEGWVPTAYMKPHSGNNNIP

T4: Rvs167 SH3 (RV167_YEAST), P39743
T4 chain: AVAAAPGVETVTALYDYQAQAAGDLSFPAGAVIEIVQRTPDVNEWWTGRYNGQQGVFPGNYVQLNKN

T5: Yfr024 SH3 (LSB3_YEAST), P43603
T5 chain: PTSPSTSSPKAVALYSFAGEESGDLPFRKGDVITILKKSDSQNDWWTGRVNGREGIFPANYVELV

T6: Yhr016c SH3 (YSC84_YEAST), P32793
T6 chain: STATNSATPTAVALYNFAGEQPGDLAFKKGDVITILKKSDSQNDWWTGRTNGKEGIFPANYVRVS


What was measured:
Experiment in all cases: SPOT array
[1] = molecular target: T1, Boi1 SH3 (BOI1_YEAST), P38041
[2] = molecular target: T2, Boi2 SH3 (BOI2_YEAST), P39969
[3] = molecular target: T3, Myo5 SH3 (MYO5_YEAST), Q04439
[4] = molecular target: T4, Rvs167 SH3 (RV167_YEAST), P39743
[5] = molecular target: Sho1 SH3 (SHO1_YEAST), P40073
Chain of Sho1 SH3 (SHO1_YEAST), P40073 (P40073 295-366): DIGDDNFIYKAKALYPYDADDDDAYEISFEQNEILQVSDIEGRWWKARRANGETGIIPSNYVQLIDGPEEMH

[6] = molecular target: T5, Yfr024 SH3 (LSB3_YEAST), P43603
[7] = molecular target: T6, Yhr016c SH3 (YSC84_YEAST), P32793

| Binder | normalised SPOT signal, Boehringer light units (BLU); mean over the file's lines of this peptide [1] | normalised SPOT signal, Boehringer light units (BLU); mean over the file's lines of this peptide [2] | normalised SPOT signal, Boehringer light units (BLU); mean over the file's lines of this peptide [3] | normalised SPOT signal, Boehringer light units (BLU); mean over the file's lines of this peptide [4] | normalised SPOT signal, Boehringer light units (BLU); mean over the file's lines of this peptide [5] | normalised SPOT signal, Boehringer light units (BLU); mean over the file's lines of this peptide [6] | normalised SPOT signal, Boehringer light units (BLU); mean over the file's lines of this peptide [7] |
| --- | --- | --- | --- | --- | --- | --- | --- |
| EGTTKVDPIIPVPE [YJR122W 96-109] | 57.3 | 1.6 | 180 | 53.1 | 70.4 | 0 | 0 |
| EHLQKERPKPPNKG [YOR233W 329-342] | 744 | 29.7 | 364 | 112 | 54.5 | 824 | 55.1 |
| EIAKRLQPGSPVLG [YHR047C 776-789] | 26.9 | 8.9 | 172 | 116 | 22 | 126 | 58.7 |
| EIKDRDQPAVPPSP [YOL047C 317-330] | 5.1 | 20.6 | 108 | 67.9 | 20.2 | 8.7 | -0 |
| EIPSKDHPYDPEKD [YGR020C 93-106] | 51.8 | 7.3 | 51.8 | 0 | 31.1 | 0 | 6 |
| EKEAKSEPQQPEDN [YML010W 68-81] | 22.6 | 17.9 | 139 | 19.4 | 53.3 | -0 | 8.8 |
| EKELKEGPSSPASI [YJL076W 376-389] | 46.3 | 13.1 | 208 | 41.1 | 61.7 | 0 | 28.2 |
